Assay results reported in patent US20260218147, “CAS ENDONUCLEASE AND GUIDE RNA VARIANTS WITH IMPROVED EFFICIENCY” (PIONEER HI-BRED INTERNATIONAL, INC., published 2026).
Where a chain is given by its changes, count along the chain named.

T1: Cas-alpha 10 variant T34E+M45S+G81E+G470D (SEQ ID NO:362) (synthetic construct, UniProt P0DW62 SEQ:1-497, D54F)
T1 sequence: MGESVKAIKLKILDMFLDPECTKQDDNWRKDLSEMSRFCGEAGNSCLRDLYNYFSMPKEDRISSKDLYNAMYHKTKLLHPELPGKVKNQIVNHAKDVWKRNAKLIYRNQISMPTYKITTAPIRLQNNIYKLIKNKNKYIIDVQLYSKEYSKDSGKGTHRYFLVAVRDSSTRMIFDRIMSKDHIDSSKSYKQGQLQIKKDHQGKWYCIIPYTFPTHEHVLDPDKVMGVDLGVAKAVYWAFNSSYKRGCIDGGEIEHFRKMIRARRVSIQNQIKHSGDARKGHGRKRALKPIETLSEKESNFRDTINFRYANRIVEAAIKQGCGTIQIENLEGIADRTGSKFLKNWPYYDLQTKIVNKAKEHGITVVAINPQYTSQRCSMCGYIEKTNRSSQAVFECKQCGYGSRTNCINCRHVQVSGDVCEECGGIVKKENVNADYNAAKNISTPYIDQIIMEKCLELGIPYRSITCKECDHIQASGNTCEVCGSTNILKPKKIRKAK

T2: Cas-alpha 10 base variant (synthetic construct, UniProt P0DW62 SEQ:1-497)
T2 chain: T1 sequence with E34T, S45M, E81G, D470G

T3: Cas-alpha 10 wild type (Cas12f) (Syntrophomonas palmitatica, UniProt P0DW62 SEQ:1-497)
T3 sequence: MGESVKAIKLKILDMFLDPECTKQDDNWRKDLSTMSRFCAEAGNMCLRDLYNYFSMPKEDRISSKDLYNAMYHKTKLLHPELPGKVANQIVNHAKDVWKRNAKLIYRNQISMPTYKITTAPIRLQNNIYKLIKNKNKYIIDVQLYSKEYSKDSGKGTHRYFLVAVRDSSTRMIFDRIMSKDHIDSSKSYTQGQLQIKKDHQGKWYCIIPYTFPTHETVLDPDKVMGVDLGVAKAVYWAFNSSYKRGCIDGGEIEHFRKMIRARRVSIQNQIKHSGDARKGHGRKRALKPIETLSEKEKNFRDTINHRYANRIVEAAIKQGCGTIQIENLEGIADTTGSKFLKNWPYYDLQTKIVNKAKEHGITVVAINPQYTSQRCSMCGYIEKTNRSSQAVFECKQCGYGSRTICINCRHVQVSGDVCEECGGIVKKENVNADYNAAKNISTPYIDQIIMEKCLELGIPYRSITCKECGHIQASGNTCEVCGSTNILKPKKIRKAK

T4: Cas-alpha 10 variant G81E (synthetic construct, UniProt P0DW62 SEQ:1-497)
T4 chain: T3 sequence

B1: sgRNA RUNX Design 5_157-159 ; RUNX target (ssRNA ; dsDNA)
RNA: GUUUCGCGCGCCAGGGCAGUUAGGUGCCCUAAAAGAGCGAAGUGGCCGAAAGGAAAGGCUAACGCUUCUCUAACGCUACGGCGACCUUGGCGAAAUGCCAUCAAUACCACGCGGCCCGAAAGGGUUCGCGCGAAACGAACGCAUCUUGCGUAAGCGCGUGGAUUGAAACCCUGUCUUGUUUGUGAGAGG
DNA 1: GTTCCCTGTCTTGTTTGTGAGAGG
DNA 2: CCTCTCACAAACAAGACAGGGAAC
B2: sgRNA RUNX (original) ; RUNX target (ssRNA ; dsDNA)
RNA: AUUUACUCUGUUUCGCGCGCCAGGGCAGUUAGGUGCCCUAAAAGAGCGAAGUGGCCGAAAGGAAAGGCUAACGCUUCUCUAACGCUACGGCGACCUUGGCGAAAUGCCAUCAAUACCACGCGGCCCGAAAGGGUUCGCGCGAAACUGAGUAAUGAAAGUCGCAUCUUGCGUAAGCGCGUGGAUUGAAACCCUGUCUUGUUUGUGAGAGG
DNA 1: GTTCCCTGTCTTGTTTGTGAGAGG
DNA 2: CCTCTCACAAACAAGACAGGGAAC
B3: sgRNA MS26 (original) ; MS26 target (ssRNA ; dsDNA)
RNA: AUUUACUCUGUUUCGCGCGCCAGGGCAGUUAGGUGCCCUAAAAGAGCGAAGUGGCCGAAAGGAAAGGCUAACGCUUCUCUAACGCUACGGCGACCUUGGCGAAAUGCCAUCAAUACCACGCGGCCCGAAAGGGUUCGCGCGAAACUGAGUAAUGAAAGUCGCAUCUUGCGUAAGCGCGUGGAUUGAAACAAGUUCACGGCGUUCCAGGC
DNA 1: GTTCAAGTTCACGGCGTTCCAGGC
DNA 2: GCCTGGAACGCCGTGAACTTGAAC

Key:
[1] = target: T1, Cas-alpha 10 variant …; experiment: cell_activity; PAM GTTC; HEK293T 37 C; details: tags: SV40 NLS, T2A-GFP; chain copies: 2
Experimental: (§1) Human cell transformation was carried-out by culturing HEK293T cells (ATCC catalog umber CRL-3216) in Dulbecco's Modified Eagle Medium (DMEM) supplemented with 10% fetal bovine serum (FBS) and penicillin (100 U/ml)/streptomycin (100 μg/ml) at 37° C. in 5% CO₂. Cells were then seeded in 96-well plates at a 1.8×10^4 cells/well density. After approximately one day growth, cells were transfected with plasmids encoding nuclease and U6-guide RNA expression cassettes using FuGENE HD (Promega) per manufacturer's instruction. Briefly, on the day of transfection, 0.450 μg of plasmid DNA ([…] of Cas-alpha nuclease and 0.099 μg of sgRNA expression cassettes) was diluted in a final volume of 20 μl of room temperature Opti-MEM (Gibco), mixed, and 1.35 μl of FuGENE HD was added directly to the solution (not allowing undiluted transfection reagent to contact the sides or bottom of the tube or plate) to achieve a 3:1 ratio of transfection reagent to plasmid DNA. The resulting mixture was then incubated for 10 mins at room temperature, 20 μl added to each HEK293T seeded well, and mixed gently by pipetting or by using a shaker. Transfected cells were then grown at 37° C. with 5% CO₂ for 4 days and GFP expression monitored by fluorescence microscope. Experiments were performed with three to twelve independent replicates and transfections where Cas-alpha 10 endonuclease and/or sgRNA plasmid DNA expression cassettes were omitted served as negative controls.
(§2) For human cells, cells were washed twice with PBS two to four days after transfection and lysed using lysis buffer (50 mM Tris, 150 mM NaCl, 0.2% Tween 20, 0.2 mg/ml Proteinase K). Next, RUNX and WTAP targets were evaluated for the presence of targeted mutations using T7 endonuclease I (Guschin, D. Y. et al. (2010) In: Mackay J., Segal D. (eds) Engineered Zinc Finger Proteins. Methods in Molecular Biology (Methods and Protocols), vol 649. Humana Press, Totowa, NJ) and Illumina deep sequencing as described above.

[2] = target: T2, Cas-alpha 10 base variant; experiment: cell_activity; PAM GTTC; HEK293T 37 C; details: tags: SV40 NLS; chain copies: 2
Experimental: as §1, §2

[3] = target: T3, Cas-alpha 10 wild type (Cas12f); experiment: cell_activity; PAM GTTC; HEK293T 37 C; details: tags: SV40 NLS; chain copies: 2
Experimental: as §1, §2

[4] = target: T4, Cas-alpha 10 variant G81E; experiment: cell_activity; PAM GTTC; maize, 3x4 hr 45 C; details: tags: SV40 NLS; chain copies: 2
Experimental: The resulting T-DNA was then placed into LBA4404, a thymine auxotrophic strain of Agrobacterium tumefaciens, containing Vir9, a separate plasmid encoding the Bo542 virulence genes (US20170121722A1 and WO 2017/078836). The resulting Agrobacterium strain was then used to transform nine-to-ten-day old immature maize embryos (approximately 2 mm in size) by submersion in 700A liquid media containing the strain at an optical density (OD) of 0.4 to 2.0 at 550 nm for 5 min. and then removed from the media and placed on solid co-cultivation medium overnight at 21° C. in the dark. Following T-DNA delivery, embryos are transferred to resting media, 13266R, and grown in the dark at 28° C. for 5-7 days. Next, coleoptiles were removed, and embryos transferred to selection media for 11-16 days and kept in the dark at 28° C. They were then moved to maturation media and incubated for 14-25 days in the dark at 28° C. and then subject to light for 2-5 days. Next, they were moved to rooting media and incubated at 26-28° C. under light for 14-28 days refreshing media as needed. To examine Cas-alpha nuclease-guide RNA activity, transformed tissue was incubated at 28° C., standard for Agrobacterium transformation, or at a range of temperatures lower or higher than 28° C.
In a third study, the efficiency of targeted mutagenesis of Cas-alpha 10 endonuclease variants, SEQ ID NOs:14, 48, 60, and 157, were compared when tested with two sgRNA recognition domains, SEQ ID NOs:61 and 327, at two target sites, MS26 and D8. Experiments were carried-out in Zea mays using Agrobacterium (Agro) transformation as described in Example 2. Two temperature regimens were performed. The first subjected Agro transformed embryos (once per day) to 45° C. for 4 hrs on days 3, 4, and 5 (3×4 hr 45° C.) after infection and the second to a continuous incubation at 37° C. on days 1-3 (1-3d 37° C.) following infection. For both regimens, embryos were placed at 28° C. before and after temperature treatment. […]

| Binder | activity [1] | activity [2] | activity [3] | activity [4] |
| --- | --- | --- | --- | --- |
| B1 | 24.2 % targeted mutagenesis | 19.6 % targeted mutagenesis | – | – |
| B2 | – | 8.77 % targeted mutagenesis | 5.68 % targeted mutagenesis | – |
| B3 | – | – | – | 6.62 % targeted mutagenesis |
